Results: the supplement of paper PMC10567573

B1: TSN (parent)
chain: AFVVYLETETLVTREAVTEILGIE
B2: MGC27345 (parent)
chain: KYMPHLCQDSSGEVSCQCQLHPPR

Variants of: B1
Assay: protein stability index of a GFP-peptide fusion (GPS, HEK-293T) (PSI 1-6); higher = more stable
Conditions: c terminus: a fixed tail appended
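Note: lentivirally expressed fusions sorted by FACS into six bins by GFP to DsRed ratio, PSI derived from sequencing read proportions per bin multiplied by bin number.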

Variant	protein stability index
AFVVYLETETLVTREAVTVILGIE [E19V]	3.19
AFVVYLETETLVTREAVTNILGIE [E19N]	3.7
AFVVYLETETLVTREAVTFILGIE [E19F]	2.17
AFVVYLETDTLVTREAVTEILGIE [E9D]	3.4
AFVVYLETNTLVTREAVTEILGIE [E9N]	3.46
AFVVYLETWTLVTREAVTEILGIE [E9W]	3.68
AFVVYLETLTLVTREAVTEILGIE [E9L]	1.46
AFVVYLETITLVTREAVTEILGIE [E9I]	2.44
AFVVYLETETLVTRHAVTEILGIE [E15H]	1.85
AFVVYLETETLVTRYAVTEILGIE [E15Y]	2.25
AFVVYLETETLVTRCAVTEILGIE [E15C]	1.97
AFVVYLETETLVTRFAVTEILGIE [E15F]	3.13
AFVVYLETETLVTRIAVTEILGIE [E15I]	3.25
AAVVYLETETLVTREAVTEILGIE [F2A]	1.97
AGVVYLETETLVTREAVTEILGIE [F2G]	1.88
ALVVYLETETLVTREAVTEILGIE [F2L]	2.25
AIVVYLETETLVTREAVTEILGIE [F2I]	2.72
AYVVYLETETLVTREAVTEILGIE [F2Y]	2.83

Variant	protein stability index
AFVVYLETETLVTAEAVTEILGIE [R14A]	3.41
AFVVYLETETLVTKEAVTEILGIE [R14K]	4.19
AFVVYLETETLVTMEAVTEILGIE [R14M]	4.2
AFVVYLETETLVTSEAVTEILGIE [R14S]	1.54
AFVVYLETETLVTTEAVTEILGIE [R14T]	2.48
AFVVYLETETLVTREAVTEILEIE [G22E]	2.82
AFVVYLETETLVTREAVTEILPIE [G22P]	2.86
AFVVYLETETLVTREAVTEILKIE [G22K]	1.74
AFVVYLETETLVTREAVTEILDIE [G22D]	3.2
AFVVYLETETLVTREAVTEILFIE [G22F]	3.47
AFVVYLETETLVTREAVTEILVIE [G22V]	2.04
AFVVYLETELLVTREAVTEILGIE [T10L]	2.29
AFVVYLETEPLVTREAVTEILGIE [T10P]	2.45
AFVVYLETEKLVTREAVTEILGIE [T10K]	3.37
AFVVYLETEVLVTREAVTEILGIE [T10V]	2.5
AFVVYLETEQLVTREAVTEILGIE [T10Q]	1.68
AFVVYLETEYLVTREAVTEILGIE [T10Y]	2.36

Variants of: B2
Assay: as above
Conditions: c terminus: a fixed tail appended

Variant	protein stability index
IYMPHLCQDSSGEVSCQCQLHPPR [K1I]	1.98
CYMPHLCQDSSGEVSCQCQLHPPR [K1C]	3.03
EYMPHLCQDSSGEVSCQCQLHPPR [K1E]	2.06
RYMPHLCQDSSGEVSCQCQLHPPR [K1R]	2.24
SYMPHLCQDSSGEVSCQCQLHPPR [K1S]	2.65
NYMPHLCQDSSGEVSCQCQLHPPR [K1N]	1.73
LYMPHLCQDSSGEVSCQCQLHPPR [K1L]	2.48
AYMPHLCQDSSGEVSCQCQLHPPR [K1A]	1.82
TYMPHLCQDSSGEVSCQCQLHPPR [K1T]	1.9
MYMPHLCQDSSGEVSCQCQLHPPR [K1M]	3.73
GYMPHLCQDSSGEVSCQCQLHPPR [K1G]	2.25
PYMPHLCQDSSGEVSCQCQLHPPR [K1P]	2.16
HYMPHLCQDSSGEVSCQCQLHPPR [K1H]	2.13
FYMPHLCQDSSGEVSCQCQLHPPR [K1F]	1.6
QYMPHLCQDSSGEVSCQCQLHPPR [K1Q]	2
DYMPHLCQDSSGEVSCQCQLHPPR [K1D]	2.56
VYMPHLCQDSSGEVSCQCQLHPPR [K1V]	2.43
YYMPHLCQDSSGEVSCQCQLHPPR [K1Y]	1.92
KYMAHLCQDSSGEVSCQCQLHPPR [P4A]	2.26
KYMFHLCQDSSGEVSCQCQLHPPR [P4F]	1.75

Variant	protein stability index
KYMEHLCQDSSGEVSCQCQLHPPR [P4E]	1.79
KYMCHLCQDSSGEVSCQCQLHPPR [P4C]	3.23
KYMDHLCQDSSGEVSCQCQLHPPR [P4D]	2.18
KYRPHLCQDSSGEVSCQCQLHPPR [M3R]	2.46
KYDPHLCQDSSGEVSCQCQLHPPR [M3D]	2.34
KYVPHLCQDSSGEVSCQCQLHPPR [M3V]	2.32
KYNPHLCQDSSGEVSCQCQLHPPR [M3N]	2.55
KYQPHLCQDSSGEVSCQCQLHPPR [M3Q]	1.05
KYYPHLCQDSSGEVSCQCQLHPPR [M3Y]	2.22
KYAPHLCQDSSGEVSCQCQLHPPR [M3A]	2.24
KYHPHLCQDSSGEVSCQCQLHPPR [M3H]	2.28
KYLPHLCQDSSGEVSCQCQLHPPR [M3L]	2.67
KYSPHLCQDSSGEVSCQCQLHPPR [M3S]	2.27
KYPPHLCQDSSGEVSCQCQLHPPR [M3P]	2.84
KYKPHLCQDSSGEVSCQCQLHPPR [M3K]	1.96
KYWPHLCQDSSGEVSCQCQLHPPR [M3W]	1.99
KYEPHLCQDSSGEVSCQCQLHPPR [M3E]	2.25
KYFPHLCQDSSGEVSCQCQLHPPR [M3F]	1.99
KYCPHLCQDSSGEVSCQCQLHPPR [M3C]	2.94
KYTPHLCQDSSGEVSCQCQLHPPR [M3T]	1.96

Variant	protein stability index
KYIPHLCQDSSGEVSCQCQLHPPR [M3I]	2.01
KYGPHLCQDSSGEVSCQCQLHPPR [M3G]	2.1
KSMPHLCQDSSGEVSCQCQLHPPR [Y2S]	2.33
KPMPHLCQDSSGEVSCQCQLHPPR [Y2P]	1.79
KAMPHLCQDSSGEVSCQCQLHPPR [Y2A]	1.97
KMMPHLCQDSSGEVSCQCQLHPPR [Y2M]	2.52
KNMPHLCQDSSGEVSCQCQLHPPR [Y2N]	3.13
KQMPHLCQDSSGEVSCQCQLHPPR [Y2Q]	1.78
KCMPHLCQDSSGEVSCQCQLHPPR [Y2C]	2.44
KRMPHLCQDSSGEVSCQCQLHPPR [Y2R]	2.16
KEMPHLCQDSSGEVSCQCQLHPPR [Y2E]	1.66
KGMPHLCQDSSGEVSCQCQLHPPR [Y2G]	2.87
KFMPHLCQDSSGEVSCQCQLHPPR [Y2F]	1.86
KVMPHLCQDSSGEVSCQCQLHPPR [Y2V]	2.23
KDMPHLCQDSSGEVSCQCQLHPPR [Y2D]	2.4
KWMPHLCQDSSGEVSCQCQLHPPR [Y2W]	2.64
KTMPHLCQDSSGEVSCQCQLHPPR [Y2T]	2.3
KHMPHLCQDSSGEVSCQCQLHPPR [Y2H]	2.51
KIMPHLCQDSSGEVSCQCQLHPPR [Y2I]	3.1
